Test results from patent US6613506B1, “Compositions and methods for inhibiting human immunodeficiency virus infection by down-regulating human cellular genes” (Subsidiary No. 3, Inc., priority 2000, dated 2003).

B1: CF-315: GSE, SEQ ID NO:1, antisense; NADH dehydrogenase ND6 subunit gene (nucleic acid, listed as Homo sapiens)
antisense: AGATCCTATTGGTGCGTGGGCTTTGTATGATTATGGGCGTAGATTAGTAGTAGTTACTGGTTGAACATTGTTTGTTGGTGTATATATTGTAATTGGGATTGCTCGGGGGAATAGGTTATGTGATTAGGAGTAGGG
B2: CF-128: GSE, SEQ ID NO:6, sense; NADH dehydrogenase ND4 subunit gene (nucleic acid, listed as Homo sapiens)
sense: TCCTAGTCCTCACAATCATGGCAAGCCAGCGCCACTTATCCAGTGAACCACTATCACGAAAAAAACTCTACCTCTCTATACTAATCTCCCTACAAATCTCATTAATTATAATATTCACAACCACAGA
B3: CF-117: GSE, SEQ ID NO:4, antisense; NADH dehydrogenase ND6 subunit gene (nucleic acid, listed as Homo sapiens)
antisense: GTGAAAGAGTATGATGGGGTGGTGGTTGTCGTAAACTTTAATAGTGTAGGAAGCTGAATAATTTATAAAGGAGAGGGGACAGGGTTGATTCGGGAGGATC
B4: CF-319: GSE, SEQ ID NO:2, sense; NADH dehydrogenase ND6 subunit gene (nucleic acid, listed as Homo sapiens)
sense: GATCCTCCCGAATCAACCCTGACCCCTCTCCTTCATAAATTATTCAGCTTCCTACACTATTAAAGTTTACCACAACCACCACGCCATCATACTCCTTCAC
B5: CF-061: GSE, SEQ ID NO:19; portion of an unknown human cellular gene (nucleic acid, listed as Homo sapiens)
DNA: ACACACAGACACACAGACACAGAGAGACACACAGACACACACACAGAGATACACAGAGACACAGACACAGAAACACTCTGAGAGACACACACACAGAGACACACAGACACACAGACACAGAGAGACACACAGACACACACACACAGAGATACACAGAGACACAGACACAGAAA
B6: CF-101: GSE, SEQ ID NO:3, sense; NADH dehydrogenase ND2 subunit gene (nucleic acid, listed as Homo sapiens)
sense: CATCAGCCCTTCTTAACATCTACTTCTACCTACGCCTAATCTACTCCACCTCAATCACACTACTCCCCATATCTAACAACGTAAAAATAAAATGACAGTTTGAGCATACAAAACCCACCCCATTCCTCCCCACACTCATCGCC
B7: CF-025: GSE, SEQ ID NO:5, antisense; NADH dehydrogenase ND2 subunit gene (nucleic acid, listed as Homo sapiens)
antisense: GAAGAAGCAGGCCGGATGTCAGAGGGGTGCCTTGGGTAACCTCTGGGACTCAGAAGTGAAAGGGGGCTATTCCTAGTTTTATTGCTATAGCCATTATGATTATTAATGATGAGTAT

Experiments:
[1] = test system: latent HIV provirus in OM10.1 cells; assay: Induction of latent HIV provirus by TNF-α in OM10.1 cells (CD4 retention, p24); type: cell-based, HIV-1
Description: In order to determine p24 expression in HIV-infected cells, the cells were first washed twice with Assay Buffer. About 10^6 cells were suspended in 100 μL Assay Buffer, mixed with 2 mL of Ortho PermeaFix Solution (available from Ortho Diagnostics), and incubated for 40 min. at room temperature. After centrifugation at 1200 rpm for 4 min. at 4EC, the cells were resuspended in 2 mL Wash Buffer (500 mL PBS, 25 mL fetal bovine serum, 1.5% bovine serum albumin and 0.0055% EDTA) for 10 min. at room temperature. After centrifugation, the cells were resuspended in 50 ΦL Wash Buffer and mixed with 1:500 dilution of an IgG2a antibody for 20 min. at 4EC, followed by incubation with 5-10 ΦL of anti-p24 antibody (KC57-FITC, available from Coulter) for 30 min. at 4EC. The cells were then washed twice with Wash Buffer and analyzed by flow cytometry.
(§1) One strategy selected for GSEs which suppressed productive infection of cells by HIV. The second strategy selected for GSEs which suppressed induction of the latent provirus in OM10.1 cells. When OM10.1 cells were treated with TNF-α and stained with an antibody specific for the cell surface molecule CD4, a rapid loss of CD4 expression was observed (FIG. 1). In contrast, the vast majority of the uninduced OM10.1 cells retained CD4 expression. It is believed that activation of the latent virus in OM10.1 cells by TNF-α leads to the production of viral protein gp120, which binds to cytoplasmic CD4, thereby preventing its translocation to the cell surface. A diminution of CD4^+ OM10.1 cells also correlates with an increased production of viral protein p24 in the cells following TNF-α induction.
OM10.1 cells were cultured in RPMI 1640 glucose-free media prior to and during incubation with NADH dehydrogenase inhibitors and TNF-á induction. The inhibitors were added to the cells followed by TNF-á induction 1-2 hours later. The expression of CD4 by the cells was assessed by anti-CD4 antibody staining and flow cytometry after 24 hour incubation at 37° C.

[2] = test system: HIV-1SF2; assay: Protection of GSE-transduced CEM-ss cells from HIV-1SF2 infection (intracellular p24); type: cell-based; conditions: HIV-1SF2 at TCID50 of 1000, versus vector (LNGFRM) control
Description: FIG. 2 illustrates the percentage of intracellular p24^+ CEM-ss cells containing the CF-315 sequence (SEQ ID NO:1) after infection with HIV-1SF2 at a TCID50 of 1000. CEM-ss cells (10^6) containing the C-315 construct or control vector DNA (denoted as LNGFRM) were harvested on the indicated days post infection, stained with FITC-conjugated anti-p24 monoclonal antibody and analyzed by flow cytometry. Mock infected cells, -⋄-; LNGFRM vector-infected cells, -[…]-; and C-315 infected cells, -Δ-.
FIG. 3 illustrates the percentage of intracellular p24^+ CEM-ss cells containing various GSEs: CF-004 (SEQ ID NO:7), CF-025 (SEQ ID NO:5), CF-113 (SEQ ID NO:8) and CF-204 (SEQ ID NO:9) after infection with HIV-1SF2 at a TCID50 of 1000. Controls include mock-infected, vector (LNGFRM)-infected and HIV-infected CEM-ss cells.
FIG. 4 illustrates the percentage of intracellular p24^+ CEM-ss cells containing CF-001 (SEQ ID NO:10) after infection with HIV-1SF2 at a TCID50 of 1000. Controls include mock-infected and vector (LNGFRM)-infected cells. […]
In order to determine p24 expression in HIV-infected cells, the cells were first washed twice with Assay Buffer. […] The cells were then washed twice with Wash Buffer and analyzed by flow cytometry. […]

[3] = test system: HIV; assay: Selection of GSEs from RFE libraries using OM10.1 and CEM-ss cells (strategy not stated per GSE); type: cell-based, HIV-1; conditions: GSEs matching NADH dehydrogenase subunit genes
Description: (§2) The libraries prepared from HL-60 cells according to the method of Section A of this Example, were transfected into the packaging cell line, PA317 (ATCC CRL #9078), and converted into retrovirus for infection of OM10.1 cells. Libraries in pLNCX vector were co-cultured and selected with G418. Libraries in pLNGFRM vector were transduced by spinoculation (centrifugation of target cells at 1200×g for 90 min. in the presence of filtered retroviral supernatant; Dunn et al., 1999, Gene Therapy 6: 133-137) and selected by FACS sorting of the NGFR^+ population. After selection, the OM10.1 cells harboring the entire RFE library were induced with 10 U/mL of TNF-α at 37EC, and 24 hours later, were stained with an antibody and sorted for CD4 expression. Genomic DNA from the CD4^+ cells was purified and used for PCR amplification of inserts with the vector-derived primers. The amplified mixture was digested with EcoRI and BamHI and cloned back into the retroviral vector. The selection was repeated for additional rounds.
Additionally, a normalized RFE library made from HeLa cells was transferred into CEM-ss cells and the neo resistant population was infected with TCID50 of 3000/10^6 cells of HIV-1IIIB. This RFE library was represented by 50×10^6 independent recombinant clones. Four and seven days after infection, a purified anti-CD4 monoclonal antibody, L77 (available from Becton Dickinson), was added at 5 Φg/mL to prevent syncytia formation. Syncytia formation is thought to be prevented by blocking the interaction between gp120 expressed on the surface of an infected cell and CD4 on the surface of an uninfected cell. […] At 10-12 days after infection, CD4^+, p24^− cell population representing uninfected cells were sorted. Genomic DNA from the CD4^+, p24^− cells was purified and used for PCR amplification of inserts with the vector-derived primers. The amplified mixture was digested with EcoRI and BamHI and cloned back into the retroviral vector. The selection was repeated for additional rounds.
as §1
GSEs derived from cDNAs representing expressed human cellular genes were identified and isolated from a RFE library made from HL-60 cells using HIV provirus activation in OM10.1 cells as a read-out. Following transfection of the entire library into a packaging cell line, retrovirus carrying the library was used to infect OM10.1 cells by co-cultivation or spinoculation, and NGFR selection was performed to ensure the retention of the viral vector. When the infected cells were treated with TNF-α a small number of residual CD4^+ cells were detected by an anti-CD4 antibody and sorted by FACS. The GSEs contained in these cells were recovered by PCR amplification and their nucleotide sequences determined.
A total of twenty GSEs were isolated by the two aforementioned selection strategies using OM10.1 and CEM-ss cells. […] CF-315 was further shown to protect uninfected human T cells from a productive HIV-1 infection (FIG. 2). In this experiment, the retroviral vector, pLNGFRM, containing the CF-315 nucleic acid molecule was transferred into CEM-ss cells followed by NGFR selection. Vector containing plasmid DNA (denoted LNGFRM) was used as negative control. […]

[4] = test system: latent HIV-1 provirus in OM10.1 cells; assay: Selection of GSEs in OM10.1 cells (TNF-α induction of latent provirus, CD4+ sorting); type: cell-based
Description: as §2, with “The amplified mixture was digested with EcoRI and BamHI and cloned back into the retroviral vector. The selection was repeated for additional rounds.” left out
GSEs derived from cDNAs representing expressed human cellular genes were identified and isolated from a RFE library made from HL-60 cells using HIV provirus activation in OM10.1 cells as a read-out. […] When the infected cells were treated with TNF-α a small number of residual CD4^+ cells were detected by an anti-CD4 antibody and sorted by FACS. The GSEs contained in these cells were recovered by PCR amplification and their nucleotide sequences determined.

| Molecule | HIV-suppressive activity of the GSE and active orientation [3] | other results |
| --- | --- | --- |
| CCC1(CCC(C)C)C(=O)NC(=O)NC1=O [amytal, Amytal] | – | inhibition of induction of latent HIV provirus (retention of CD4 expression) ([1]; TNF-α-induced OM10.1 cells, 24 hour incubation, FIG. 5 / FIG. 6): inhibited the induction of latent HIV provirus in OM10.1 cells in a dose-dependent manner; intracellular p24 levels ([1]; treated cells compared with untreated controls): suppressed intracellular p24 levels |
| B1 | suppresses HIV replication as an antisense molecule | inhibition of productive HIV infection (intracellular p24+ cells) [2]: inhibited infection of human T cells by HIV-1SF2 |
| B2 | suppresses HIV infection in the sense orientation | – |
| B3 | suppresses HIV activities as an antisense molecule | – |
| B4 | suppresses HIV replication in the sense orientation | – |
| B5 | – | selection of the GSE [4]: selected in OM10.1 cells |
| B6 | exhibits its HIV-suppressive activities in the sense orientation | – |
| B7 | suppresses HIV infection as an antisense molecule | – |
